Laboratory results taken from patent publication US9724381B2 (THE ADMINISTRATORS OF THE TULANE EDUCATIONAL FUND, priority 2009, dated 2017).
Where no end group is shown, it is not given here. [ ]: non-standard residue; d: D form. The star is where a group is joined. Desaminotyrosyl = O=C(CCc1ccc(O)cc1)*

Target: Ghrelin/GHRP/GHS Receptor (Rattus norvegicus, UniProt O08725)
Assay: In vitro GH release from isolated pituitary glands, pituitary incubation method
Format: cell-based
Settings: Table 1
Method: Hormonal activities were obtained from in vitro studies using pituitaries of 20 day old CD-1 strain Sprague Dawley female rats. Two pituitaries were incubated for a total of 4-6 hours. Medium was removed each hour for RIA of GH level and fresh medium was added again. After two one hour preincubation periods (P1-P2), the vehicle/peptides were added to two one hour incubations (I3-I4). Peptide activity was calculated as the change in the hormonal level (delta) between I3+I4 and P2. For antagonist activity, the incubation was continued for 2 additional hours (I5-I6) where both the peptide and a stimulator of GH secretion was added and the antagonist activity was calculated as the change in the hormonal level (delta) between I5+I6 and P2. The peptides were assayed in triplicate and the hormone was assayed in duplicate. Each value recorded represents the mean of 6. The GH RIA reagents were distributed by the NIH. Control data was collected from isolated pituitary glands treated with only the corresponding vehicle in the absence of peptide or stimulator. Control stimulated data was collected from isolated pituitary glands treated with stimulator alone in the absence of any peptide.

[1] = peptide antagonist 10 μg/ml + stimulator His-DTrp-Ala-Trp-DPhe-Lys-NH2 10 ng/ml
[2] = peptide antagonist 30 μg/ml + stimulator His-DTrp-Ala-Trp-DPhe-Lys-NH2 10 ng/ml
[3] = peptide antagonist 3 μg/ml + stimulator His-DTrp-Ala-Trp-DPhe-Lys-NH2 10 ng/ml
[4] = peptide antagonist 0.3 μg/ml + stimulator His-DTrp-Ala-Trp-DPhe-Lys-NH2 10 ng/ml
[5] = peptide antagonist 1 μg/ml + stimulator His-DTrp-Ala-Trp-DPhe-Lys-NH2 10 ng/ml

Chain of Ghrelin/GHRP/GHS Receptor (O08725 whole entry): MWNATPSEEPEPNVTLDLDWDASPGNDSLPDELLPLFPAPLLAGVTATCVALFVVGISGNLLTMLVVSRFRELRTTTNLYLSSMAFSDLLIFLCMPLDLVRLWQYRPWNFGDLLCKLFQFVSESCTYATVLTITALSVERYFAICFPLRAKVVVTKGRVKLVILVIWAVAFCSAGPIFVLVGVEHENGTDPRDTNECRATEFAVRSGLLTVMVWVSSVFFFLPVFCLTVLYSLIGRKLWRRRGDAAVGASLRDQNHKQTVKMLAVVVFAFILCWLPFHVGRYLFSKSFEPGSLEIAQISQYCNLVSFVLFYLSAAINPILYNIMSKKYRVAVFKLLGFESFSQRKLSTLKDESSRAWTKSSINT

DesaminoTyr-DTrp-Ser-Trp-DPhe-NH2 ([Desaminotyrosyl][dW]SW[dF]-NH2; SMILES NC(=O)[C@@H](Cc1ccccc1)NC(=O)[C@H](Cc1c[nH]c2ccccc12)NC(=O)[C@H](CO)NC(=O)[C@@H](Cc1c[nH]c2ccccc12)NC(=O)CCc1ccc(O)cc1)
Change in stimulated GH release versus preincubation (delta) [1]: 3119 ± 488 ng/mL | Change in stimulated GH release versus preincubation (delta) [2]: 3258 ± 682 ng/mL

His-DTrp-DArg-Trp-DPhe-NH2 (chain 1 H[dW][dR]W[dF]-NH2; chain 2 H[dW][dR]W[dF]-NH2; not fully specified; printed as His-DTrp-DArg-Trp-DPhe-NH2)
Change in stimulated GH release versus preincubation (delta) [3]: 341 ± 222 ng/mL | Change in stimulated GH release versus preincubation (delta) [1]: -125 ± 101 ng/mL | Change in stimulated GH release versus preincubation (delta) [2]: -122 ± 44 ng/mL

His-DTrp-DLys-Trp-DPhe-Lys-NH2 (H[dW][dK]W[dF]K-NH2; N-terminus assumed; SMILES NCCCC[C@H](NC(=O)[C@@H](Cc1ccccc1)NC(=O)[C@H](Cc1c[nH]c2ccccc12)NC(=O)[C@@H](CCCCN)NC(=O)[C@@H](Cc1c[nH]c2ccccc12)NC(=O)[C@@H](N)Cc1c[nH]cn1)C(N)=O)
Change in stimulated GH release versus preincubation (delta) [4]: 952 ± 200 ng/mL | Change in stimulated GH release versus preincubation (delta) [5]: 324 ± 181 ng/mL | Change in stimulated GH release versus preincubation (delta) [3]: 134 ± 91 ng/mL | Change in stimulated GH release versus preincubation (delta) [1]: -83 ± 132 ng/mL | Change in stimulated GH release versus preincubation (delta) [2]: -175 ± 59 ng/mL

His-DTrp-DLys-Trp-DPhe-NH2 (H[dW][dK]W[dF]-NH2; N-terminus assumed; SMILES NCCCC[C@@H](NC(=O)[C@@H](Cc1c[nH]c2ccccc12)NC(=O)[C@@H](N)Cc1c[nH]cn1)C(=O)N[C@@H](Cc1c[nH]c2ccccc12)C(=O)N[C@H](Cc1ccccc1)C(N)=O)
Change in stimulated GH release versus preincubation (delta) [4]: 1765 ± 160 ng/mL | Change in stimulated GH release versus preincubation (delta) [3]: 949 ± 178 ng/mL | Change in stimulated GH release versus preincubation (delta) [2]: 91 ± 103 ng/mL

His-DTrp-DTrp-Phe-Met-NH2 (H[dW][dW]FM-NH2; N-terminus assumed; SMILES CSCC[C@H](NC(=O)[C@H](Cc1ccccc1)NC(=O)[C@@H](Cc1c[nH]c2ccccc12)NC(=O)[C@@H](Cc1c[nH]c2ccccc12)NC(=O)[C@@H](N)Cc1c[nH]cn1)C(N)=O)
Change in stimulated GH release versus preincubation (delta) [4]: 1542 ± 523 ng/mL | Change in stimulated GH release versus preincubation (delta) [5]: 323 ± 69 ng/mL | Change in stimulated GH release versus preincubation (delta) [3]: 445 ± 188 ng/mL | Change in stimulated GH release versus preincubation (delta) [1]: 287 ± 68 ng/mL | Change in stimulated GH release versus preincubation (delta) [2]: -319 ± 95 ng/mL

Tyr-DTrp-DLys-Trp-DPhe-NH2 (Y[dW][dK]W[dF]-NH2; N-terminus assumed; SMILES NCCCC[C@@H](NC(=O)[C@@H](Cc1c[nH]c2ccccc12)NC(=O)[C@@H](N)Cc1ccc(O)cc1)C(=O)N[C@@H](Cc1c[nH]c2ccccc12)C(=O)N[C@H](Cc1ccccc1)C(N)=O)
Change in stimulated GH release versus preincubation (delta) [3]: -480 ± 95 ng/mL | Change in stimulated GH release versus preincubation (delta) [2]: -363 ± 66 ng/mL

Tyr-DTrp-DTrp-Phe-Phe-NH2 (Y[dW][dW]FF-NH2; N-terminus assumed; SMILES NC(=O)[C@H](Cc1ccccc1)NC(=O)[C@H](Cc1ccccc1)NC(=O)[C@@H](Cc1c[nH]c2ccccc12)NC(=O)[C@@H](Cc1c[nH]c2ccccc12)NC(=O)[C@@H](N)Cc1ccc(O)cc1)
Change in stimulated GH release versus preincubation (delta) [4]: 1274 ± 329 ng/mL | Change in stimulated GH release versus preincubation (delta) [1]: 1034 ± 182 ng/mL | Change in stimulated GH release versus preincubation (delta) [2]: -167 ± 157 ng/mL

Tyr-DTrp-Lys-Trp-DPhe-NH2 (Y[dW]KW[dF]-NH2; N-terminus assumed; SMILES NCCCC[C@H](NC(=O)[C@@H](Cc1c[nH]c2ccccc12)NC(=O)[C@@H](N)Cc1ccc(O)cc1)C(=O)N[C@@H](Cc1c[nH]c2ccccc12)C(=O)N[C@H](Cc1ccccc1)C(N)=O)
Change in stimulated GH release versus preincubation (delta) (peptide antagonist 100 μg/ml + stimulator His-DTrp-Ala-Trp-DPhe-Lys-NH2 10 ng/ml): -555 ± 121 ng/mL
